Experiments:
[1] = target: TSH receptor (TSHR), full length human, coated on tubes (human) (UniProt P16473); experiment: inhibition of 125I-TSH binding to TSHR coated tubes; 10 µg/mL, diluted in assay buffer
[2] = target: human TSH receptor (full length) coated on ELISA plate wells (human) (UniProt P16473); experiment: TSH-biotin binding inhibition ELISA, TSHR coated wells; 1 µg/mL in HBD serum pool; negative control MAb
[3] = target: TSHR (thyroid stimulating hormone receptor), full length human (human) (UniProt P16473); experiment: negative control; competitor ^125I-K1-70 IgG, TSHR coated tubes; 0.01 µg/mL in HBD
[4] = target: TSH receptor (full length human TSHR) (human) (UniProt P16473); experiment: competition ELISA: inhibition of M22 Fab-peroxidase (competitor) binding to TSHR coated wells; negative control at 0.01 µg/mL diluted in HBD serum pool
[5] = target: TSHR (thyroid stimulating hormone receptor), full length human (human) (UniProt P16473); experiment: competitor ^125I-K1-70 IgG, TSHR coated tubes; 0.1 µg/mL in HBD
[6] = target: human TSHR on transfected CHO cells (human, UniProt P16473 22-764); experiment: cell-based or functional assay
[7] = target: TSH receptor (full length human TSHR) coated on tubes (human) (UniProt P16473); experiment: 125I-TSH binding inhibition read against NIBSC 90/672; 10 ng/mL, in serum
[8] = target: thyroid stimulating hormone receptor (full length human TSHR) (human) (UniProt P16473); experiment: ELISA: inhibition of M22 Fab-peroxidase (competitor) binding to TSHR coated wells; 0.1 µg/mL, diluted in HBD serum pool
[9] = target: thyroid stimulating hormone receptor (TSHR), full length, coated on tubes (human) (UniProt P16473); experiment: inhibition of 125I-TSH binding, TSHR coated tubes; antibody 0.01 µg/mL in assay buffer; mean of duplicate
[10] = target: human TSH receptor (full length) coated on ELISA plate wells (human) (UniProt P16473); experiment: TSH-biotin binding inhibition ELISA, TSHR coated wells; 100 µg/mL in HBD serum pool

5B3 IgG (antibody)
Inhibition of binding (%) [1]: -5.7% | % inhibition of TSH-biotin binding [2]: 8% | Inhibition of binding (%) [3]: -5.8% | Inhibition of binding (%) [4]: 4.3%

9D33 IgG (antibody)
Inhibition of binding (%) [5]: 14.8% | TSHR constitutive (basal) cyclic AMP activity [6]: 2 x basal

M22 IgG (antibody)
units/L [7]: 1.5 units/L | units/mg [7]: 150 units/mg

B1: 5C9 IgG (antibody, from another filing, V domains shown)
VH: EVQLVESGGGLIQPGGSLRLSCAASGFTVSSNYMSWVRQAPGKGLEWVSVTYSGGSTSYADSVKGRFTISRDNSKNTLYLQMNSLRAEDTAVYYCARGGRYCSSISCYARSGCDYWGQGTLVTVSS
VL: AIQMTQSPSSLSASVGDRVTITCRASQSISNYLNWYQQKPGKAPKLLIYAASSLQSGVPSRFSGSGSGTDFTLTISSLQPEDFATYYCQQSYSSPSTTFGQGTKLEIK
Inhibition of binding (%) [8]: 6.3% | Inhibition of binding (%) [9]: 15.9% | % inhibition of TSH-biotin binding [10]: 48.6%

Reference: patent US20110300138A1 (published 2011)
